In publication PMC5021340:

Biological target: Mig1 (Xanthophyllomyces dendrorhous) (UniProt A0A1C9UL02)
Assay: EMSA
Conditions: 20 mM HEPES pH 7.9, 50 mM KCl, 1 mM DTT, 0.1 mM EDTA, 5% glycerol (+2.5%), 200 ug/ml BSA, 50 ng/ul poly(dI-dC), 0.05% NP-40, 20 fmol DNA, 10 ug Mig1 in 20 ul …

Mig1 (Xanthophyllomyces dendrorhous), sequence (A0A1C9UL02 entry or part of it): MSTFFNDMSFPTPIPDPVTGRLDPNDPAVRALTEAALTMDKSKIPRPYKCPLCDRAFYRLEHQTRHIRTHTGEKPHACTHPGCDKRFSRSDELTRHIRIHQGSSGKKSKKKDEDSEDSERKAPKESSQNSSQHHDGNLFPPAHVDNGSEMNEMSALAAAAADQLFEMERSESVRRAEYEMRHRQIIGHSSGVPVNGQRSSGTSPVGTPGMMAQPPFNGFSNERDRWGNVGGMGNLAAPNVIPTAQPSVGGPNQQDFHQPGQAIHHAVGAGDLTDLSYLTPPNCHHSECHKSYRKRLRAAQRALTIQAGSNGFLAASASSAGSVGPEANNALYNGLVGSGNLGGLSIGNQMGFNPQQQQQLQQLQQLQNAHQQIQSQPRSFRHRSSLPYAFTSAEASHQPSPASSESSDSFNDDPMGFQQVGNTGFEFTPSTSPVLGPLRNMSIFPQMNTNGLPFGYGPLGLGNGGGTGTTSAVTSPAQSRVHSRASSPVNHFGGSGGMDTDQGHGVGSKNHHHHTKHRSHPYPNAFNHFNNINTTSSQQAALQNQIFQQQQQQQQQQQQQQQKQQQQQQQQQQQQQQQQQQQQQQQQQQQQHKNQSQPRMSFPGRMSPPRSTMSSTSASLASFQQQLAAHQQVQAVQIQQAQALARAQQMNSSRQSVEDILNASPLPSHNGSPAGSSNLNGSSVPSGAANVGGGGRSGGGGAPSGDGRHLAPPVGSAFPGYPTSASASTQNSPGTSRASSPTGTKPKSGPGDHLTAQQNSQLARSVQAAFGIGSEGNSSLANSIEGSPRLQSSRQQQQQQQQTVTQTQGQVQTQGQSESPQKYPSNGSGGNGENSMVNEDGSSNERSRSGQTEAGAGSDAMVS

## GAAGATGATGCGGCGGCAACTGGTTCTGGGCTGGGGAACACCCTATTCGACCGGTTGAATGAGTCACAATCGGCCGGCAGCCCTGCTGCAGGCACCGGCGCAAGTGGCTCCGGACCGAAGCCTCGCCAGCAGTTGATCAAGCGAACCAAGCCGAACAATCCTGGCGCGCCTGGAGGAGCGGGAGCGGGAGGAGCAGCAGGTGATGCATC (double strand) [crtS promoter boxes C-D 209 bp]
  binding: binds
